Assay results taken from the DeepSol protein solubility set.

Assay: soluble on expression in E. coli; label from the status in PepcDB or PDB records

| Sequence | soluble on expression in E. coli |
| --- | --- |
| MRKEAIYHRPADNFAYAYDSETLHLRLRTKKDDIDRVELLHGDPYDWQNGAWQFQMMPMRKTGSDELFDYWFAEVKPPYRRLRYGFVLYSGEEKLVYTEKGFYFEVPTDDTAYYFCFPFLHRVDLFEAPDWVKDTVWYQIFPERFANGNPSISPEGSRPWGSEDPTPTSFFGGDLQGIIDHLDYLVDLGITGIYLTPIFRSPSNHKYDTADYFEVDPHFGDKETLKTLIDRCHEKGIRVMLDAVFNHCGYEFAPFQDVWKNGESSKYKDWFHIHEFPLQTEPRPNYDTFAFVPQMPKLNTANPEVKRYLLDVATYWIREFDIDGWRLDVANEIDHEFWREFRQEVKALKPDVYILGQIWHDAMPWLRGDQFDAVMNYPFTDGVLRFFAKEEISARQFANQMMHVLHSYPNNVNEAAFNLLGSHDTSRILTVCGGDIRKVKLLFLFQLTFTGSPCIYYGDEIGMTGGNDPECRKCMVWDPMQQNKELHQHVKQLIALRKQYRSLRRGEISFLHADDEMNYLIYKKTDGDETVLVIINRSDQKADIPIPLDARGTWLVNLLTGERFAAEAETLCTSLPPYGFVLYAIEHW | soluble |
| MFCKRFIALVTMLTLVCSMLLPYSNASAETGSALNIEAGAAILVEANSGKILYQKNADELLSIASMTKMMSEYLVHEAVDKGKFKWDQKIKVSEYAYKVSQDASLSNVALENGGSYTVKELYEAMAIFSANGATIALAEAIAGKEVDFVKMMNDKSKELGLKNYKFVNSTGLTNKDLKGMHPEGTTADEENKMSAKDVATLAQHLIKDYPKVLDTAKIPKKEFRPEKEKFAMSNWNWMLKGLVKEYDGVDGLKTGSTPEAGDCFTGTVERNGMRFISVVIKTSSHTARFDETKKLYDYGFANFEMKQMYKKGSSVKGQETVRVENAKDKDVAVQTKQAISLPVPKGSKEVYKTELKESSKGQEAPIKKGAALGQMVITPKDTNDPGFLTGKSLQVDLVTTSEVEEANWFTRAMRGIGSFFSGIWNSAVDTVKGWF | not soluble |
| GPGSMHDLVADDSQDGDNEVISSEVPLNKHAGDEEATRTSTFKYKKGILINQGYEFDGSSTTCAEVPASAWGSNITGDEEATTTSYVRVYVLVSSQAALKELALPPVGSKGASGVPHATGYVPLTAATRAILGANMENCGW | not soluble |
| REPLSFSLFSQPECVEQPERLAQVFALLVNAHYQTSPNDLFALLQDEAMTLFVAYQGEVCVGCVLAVREGELDAPTIEAIQLGTRRPKGHLTPVTLANQLGISQAARQSCWRILRIAVHPDCQRQGIGSQLLTHFIAQHHADYYATSFGVSEDLLPFWLANHFVPIKLGSHRDQASGCYSLLMVRG | not soluble |
| MAVTDLSLTNSSLMPTLNPMIQQLALAIAASWQSLPLKPYQLPEDLGYVEGRLEGEKLVIENRCYQTPQFRKMHLELAKVGKGLDILHCVMFPEPLYGLPLFGCNIVAGPGGVSAAIADLSPTQSDRQLPAAYQKSLAELGQPEFEQQRELPPWGEIFSEYCLFIRPSNVTEEERFVQRVVDFLQIHCHQSIVAEPLSEAQTLEHRQGQIHYCQQQQKNDKTRRVLEKAFGEAWAERYMSQVLFDVIQ | soluble |
| MSLDQTVSNNFKMIYIASCGEGINAFHLVESTLVQFPDSDITVVKVPHIRTESQVDHLLDRVKDVESLIAHTIVEPNLRQYLVTKAEEHKIVTIDLMGQVLNKIETFLSIRPLGKPGLYRETHQVDLKQVTAIDFALAHDDGLRPESLDEAEIILVGLSRAGKTPLSMYMGVMGWKVANIPYVPGVPMPQTLDEVDRRRVIALNINIEQLLSHRKMRQESLGTSDMHAYSRRQEVEVEVQTAQKYYITKGFSMIDVSNKPIETSAEEIAEMITRRFKAQAHLKDEGHHHHHH | soluble |
| SAQQRALPQSKETLLQSYNKRLKDDIKSIMDNFTEIIKTAKIEDETQVSRATQGEQDNYEMHVRAANIVRAGESLMKLVSDLKQFLILNDFPSVNEAIDQRNQQLRTLQEECDRKLITLRDEISIDLYELEEEYYSSRYK | soluble |
| MSGAGKKIADVAFKASRTIDWDGMAKVLVTDEARREFSNLRRAFDEVNTQLQTKFSQEPEPIDWDYYRKGIGAGIVDKYKEAYDSIEIPKYVDKVTPEYKPKFDALLVELKEAEQKSLKESERLEKEIADVQEISKKLSTMTADEYFEKHPELKKKFDDEIRNDNWGY | soluble |
| MSLSGRYNMNIILGATGQVGSMLVDNLLGKGQPVRAVVRDGLKAQGLKNKGVEVKIADYLDVEALKKAFQGGSSVFLLTPENPESENFINEIQRIMSNYREAVLSSGISKIVGLSSMGAQHKSGTGNLMASYMLEHAFSDLEIEQVFVRPAYYFSNWLGYLELVREYGILPTFFPPELELPMIAPPDVAGFLSDVMTCKTQQERIYEISGPHDYSSSDIAKIFGDVLNKNVTLQQVLPEEWENTLIQAGFSKDGTRNLMLMTKAVIDGKTKNETTNRLRFSTNFKNYLQSVILNMSEGHHHHHH | soluble |
| MSTINFANREINFKIVYYGPGLSGKTTNLKWIYSKVPEGRKGEMVSLATEDERTLFFDFLPLDIGEVKGFKTRFHLYTVPGQVFYNASRKLILRGVDGIVFVADSAPNRLRANAESMRNMRENLAEYGLTLDDVPIVIQVNKRDLPDALPVEMVRAVVDPEGKFPVLEAVATEGKGVFETLKEVSRLVLARVAGGS | soluble |
| MSDFGNPLKKFKLVFLGEQSVGKTSLITRFMYDSFDNTYQATIGIDFLSKTMYLEDRTVRLQLWDTAGQERFRSLIPSYIRDSTVAVVVYDITNSNSFHQTSKWIDDVRTERGSDVIIMLVGNKTDLSDKRQVTTDEGERKAKELNVMFIETSAKAGYNVKQLFRRIAGALPGIIKDDPVEPPNVVTMDPIRQRQIVTDEGSCWC | not soluble |
| APEERDLTQEQTEKLLQFQDLTGIESMDQCRHTLEQHNWNIEAAVQDRLNEQEGVPSVFNPPPSRPLQVNTADHRIYSYVVSRPQPRGLLGWGYYLIMLPFRFTYYTILDIFRFALRFIRPDPRSRVTDPVGDIVSFMHSFEEKYGRAHPVFYQGTYSQALNDAKRELRFLLVYLHGDDHQDSDEFCRNTLCAPEVISLINTRMLFWACSTNKPEGYRVSQALRENTYPFLAMIMLKDRRMTVVGRLEGLIQPDDLINQLTFIMDANQTYLVSERLEREERNQTQVLRQQQDEAYLASLRADQEKERKKREERERKRRKEEEVQQQKLAEERRRQNLQEEKERKLECLPPEPSPDDPESVKIIFKLPNDSRVERRFHFSQSLTVIHDFLFSLKESPEKFQIEANFPRRVLPCIPSEEWPNPPTLQEAGLSHTEVLFVQDLTDE | soluble |
| MSAEEQDTRSGGIQVIARAAELLRVLQAHPGGLSQAEIGERVGMARSTVSRILNALEDEGLVASRGARGPYRLGPEITRMATTVRLGVVTEMHPFLTELSRELDETVDLSILDGDRADVVDQVVPPQRLRAVSAVGESFPLYCCANGKALLAALPPERQARALPSRLAPLTANTITDRAALRDELNRIRVDGVAYDREEQTEGICAVGAVLRGVSVELVAVSVPVPAQRFYGREAELAGALLAWVSKVDAWFNGTEDRK | soluble |
| DSDDRVTPPAEPLDRMPDPYRPSYGRAETVVNNYIRKWQQVYSHRDGRKQQMTEEQREWLSYGCVGVTWVNSGQYPTNRLAFASFDEDRFKNELKNGRPRSGETRAEFEGRVAKESFDEEKGFQRAREVASVMNRALENAHDESAYLDNLKKELANGNDALRNEDARSPFYSALRNTPSFKERNGGNHDPSRMKAVIYSKHFWSGQDRSSSADKRKYGDPDAFRPAPGTGLVDMSRDRNIPRSPTSPGEGFVNFDYGWFGAQTEADADKTVWTHGNHYHAPNGSLGAMHVYESKFRNWSEGYSDFDRGAYVITFIPKSWNTAPDKVKQGWP | soluble |
| MGSDKIHHHHHHMKMSWNHQYTNYGSIADDNGDEEKAENSEGAAAEKVEKQHDDDGVVVHEETDGVASSRSSHHDKQKPGETKKSGDGKMDDDDIITTARSSSRRICGSAASSSDSETADDAPLLPDEGPSHAVRLEMPGDKPASPHDRFPKTPLKTL | not soluble |
| MGSDKIHHHHHHMVTRITINRGKRCVDEADRCHNRWHPDIEPAAEVDPGDIVVIETRDALDGQITANPGVDDVASADLNVVHPLTGPVYVRGAKPGDLLVVEVLDIKAEPFGFTVAIPGFGFLRDLFDKPYKIRWRIEGGYAFSEDLPNVRIPGDPFLGVMGVAPSKELLKEIKEREDRLLKRGGFVLPPTPEGAVPPREPVASEGLRTIPPRENGGNLDVRHFSPGSKIYFPVFVEGALFSVGDAHYAQGDGEVCGTAIEMGATATLRFGVISEGAKKYGIRFPIFKPSESSVRRFTHSKHVAVTGVGVIDSLNESENATLSAKHALLNLINLLEKAGYTREQAYLLASVAADLRLSQLVDVPNFTVTAFLPLDIFIEPPEVLKKLAE | not soluble |
| MEECAVSGGFDVSPQELRTFAGKLDVHRSTAEEIAGLVTEADVPERSWGVVGLVVKSECTRMLGDLNELFTALQEGLRSGSEKFTGAAQDYTDQEEAVKELLSGLQVRLDERQGGR | not soluble |
| MSLGRFQTLDYEIPESMQRSWQDIVNLLAQIADVPTTLIMRVHQNHIEVNTSSDTQGNPYKAGDKEDLGHGLYCEHVIETKSQLVVPDALADEKWSNNPDIKLGMLSYCGLPLFWPNGETFGTICMLDSKANEYSETYRQLLNTFKDSIEAQLAVVYQQYKLLRLNSELKNRVENRTTDLAQLSFSLTQEIDRRKAAERQVNYQKTHDQGTGFLNRAALEAVVEDTLQSLEHGHQSLIVINVGFSNARSIQTRYGFEAFDEILKEFRKRLGMNDSNYFITGRPSSNDLVLLLWGEDADSKLHNLLDKITNISVGNFYINDTEVHLHSYVGVVQAHRSSSAKQLLQNACYAMLLCKESGEAYSYFCESHTHEGHHHHHH | soluble |
| DGFKIVQFSDAHLSDYFTLEDLKTVILTINESKPDLIVFTGDIIDNPDTYQHHQAVIPLLRKLNAPFGKLCIYGNHDHGGYGTAVYKSLMTAGGFTVYRNGYQTLSLADGSKIEIASLDDFNAGKPRFMQGTLSRLSDRLFSILLVHEPDAALKTTDYPVNLQLSGHTHGGQIQLPFYGPIITPPYGKVYTEGMYQTGSTHIYVNRG | not soluble |
| MKIDILDKGFVELVDVMGNDLSAVRAARVSFDMGLKDEERDRHLIEYLMKHGHETPFEHIVFTFHVKAPIFVARQWFRHRIASYNELSGRYSKLSYEFYIPSPERLEGYKTTIPPERVTEKISEIVDKAYRTYLELIESGVPREVARIVLPLNLYTRFFWTVNARSLMNFLNLRADSHAQWEIQQYALAIARIFKEKCPWTFEAFLKYAYKGDILKEVQV | not soluble |
| MTTRCPWVGEQSIYIDYHDKEWGKPEFDSQKLFEKICLEGQQAGLSWITVLKKRESYREAFHQFDPKKIAKMTALDIDACMQNSGLIRHRAKLEAIVKNAKAYLAMEKCGENFSDFIWSFVNHKPIVNDVPDLRSVPTKTEVSKALSKALKKRGFVFIGETTCYAFMQSMGLVDDHLNDCPCKTSLEHHHHHH | soluble |
| MLNSYELGTSFSLEYPRLVLPWMSKKMMSSRFPQHTSFKLYASQLNRARFFKMLSFGGTVSYDFQPSRVWKHTVTPFRLAFNTLQHTTTRFDTIVDKNRSLKISLGNQFIPAMSYTFTYDNAPLKKRNNLWWETSFTSAGNLTSLVYAAFGKGFKETDKKLLNSPYAQFLKMTSEVRCLFKVGEKQHIATRLMGGILYAYGNQTVAPYSEQFYIGGANSIRAFTVRSIGPGSYRPEDKQYGYLDETGDVKLEANVEYRFPILGDLYGAAFLDAGNVWLLREQKNEEGENIRPGGLLTLRNFAKSIALGTGVGLRYDLTFLVIRLDLGIALHDPYDTGKKGYYNIPKFKDGLGLHFAIGYPFLEHHHHHH | soluble |
